B1: 2'-F PS-ASO ION-766637 (XNA)
DNA: CTGCTAGCCTCTGGATTTGA
modifications: full phosphorothioate, 2'-fluoro-modified gapmer (pattern not in the material)
B2: PO-RNA JB-39 (ssRNA)
RNA: CUGCUAGCCUCUGGAUUUGA

What was measured:
[1] = biological target: FUS-P525L-NLUC-HA / NLUC-FUS-P525L-HA (full-length) (UniProt P35637 1-526, P525L); assay: NanoBRET
[2] = biological target: FUS-NLUC-FLAG (UniProt P35637 1-526, P525L); assay: NanoBRET

Row | Binder | Kd [1] [nM] | Kd [2] [nM]
1 | B1 | 2.2 ± 0.2 | 
2 | B2 |  | 143 ± 38.2

— article PMC5737868
